Source: paper doi:10.1101/2022.01.25.477770 (bioRxiv, 2022)

Experiments:
Assay in all cases: ELISA
Conditions in all cases: both partners purified
[1] = target: T1, SHC014 prefusion-stabilized spike (S2P) (Bat SARS-like coronavirus RsSHC014 …, UniProt U5WLK5, stabilised)
T1 construct: also called SHC014 S2P

[2] = target: T2, WIV1 prefusion-stabilized spike (S2P) (Bat SARS-like coronavirus WIV1 …, UniProt U5WI05, stabilised)
T2 construct: also called WIV1 S2P

[3] = target: T3, RaTG13 prefusion-stabilized spike (S2P) (Bat coronavirus RaTG13 (GenBank …, UniProt A0ABF7PLN6, stabilised))
T3 construct: also called RaTG13 S2P

[4] = target: T4, MERS-CoV prefusion-stabilized spike (S2P) (MERS-CoV EMC/2012 (GenBank AFS88936), UniProt K0BRG7, stabilised)
T4 construct: also called MERS-CoV S2P

[5] = target: T5, SARS-CoV prefusion-stabilized spike (S2P) (SARS-CoV Urbani (AAP13441.1), UniProt P59594, stabilised)
T5 construct: also called SARS-CoV S2P

Measured: binding result

B1: antibody WS6 (IgG) (antibody, V domains shown)
VH: EVQFQQSGTVLARPGASVKMSCKASGYTFTNYWIHWVKQRPGQGLEYIGGTYPGNGDTTYNQKFKGKAKVTAVTPTSTAYMDLSSLTNEDSAVYYCTRTGSYFDYWGQGTTLTVSS
VL: QIVLTQSPAIMSASPGEKVTISCSATSSVSYIYWYQQRPGSSPKPWIYRTSNLASGVPVRFSGSGSGTSYSLTISNMEAEDAATYYCQQYQSYPPTFGAGTKLELK
notes: also called mAb WS6
binds: all assays above
